Experimental data from patent US10308973B1, “Real-time imaging method of NAPDH-dependent metabolic activity in cell and use thereof” (INDUSTRY FOUNDATION OF CHONNAM NATIONAL UNIVERSITY, priority 2018, dated 2019).

Tests used:
[1] = test system: mBFP-transformed animal cells; assay: NADPH imaging of mBFP-transformed animal cells treated with NADPH dehydrogenase inhibitors; assay type: cell-based; conditions: compared among the inhibitors of Table 3
Procedure: The mBFP-transformed animal cells were cultured and treated with NADPH dehydrogenase inhibitors shown in Table 3, respectively, and the amount of change in NADPH was measured.

[2] = test system: recombinant animal cells (HeLa cell); assay: Two-photon fluorescence imaging of mBFP-expressing animal cells after oxidant treatment; assay type: cell-based; conditions: 40 μM diamide; glucose-free medium; images every second
Procedure: The recombinant animal cells produced in the Examples above were treated with diamide, which is an oxidant, to reduce the amount of NADPH in the cells, and the change in fluorescence was observed as follows. First, before observing the recombinant animal cells, the medium was replaced with a culture medium from which glucose was removed to prevent continuous overproduction of NADPH, and the cells were cultured for 1 hour and images thereof were observed. After treatment with 40 μM diamide, fluorescence images were taken every second using a real-time image measurement method using a two-photon microscopy.

[3] = Enzyme activity (aldehyde dehydrogenase) of purified mutant mBFP; assay type: biochemical; conditions: purified protein
Procedure: In order to measure benzaldehyde dehydrogenase activity, a reaction solution of pH 7.5 in which 100 mM Tris, 100 mM sodium chloride, 0.05% Triton X-100, […] and added at an amount of 10 μL per well containing 90 μL of cultured cells, and reacted for 10 minutes. The change in fluorescence value was measured by the fluorescence reader to measure the amount of NADPH consumed by the activity of mBFP mutant enzyme.
In order to measure the enzyme activity of the short-chain dehydrogenase/reductase family (SDR family) of the purified mutant mBFP, a reaction solution (100 mM Tris, 100 mM sodium chloride, 0.05% Triton X-100, 0.5 mM benzaldehyde, 0.5 mM NADPH, pH 7.5) for measuring aldehyde dehydrogenase was added at an amount of 10 μL to each well to which the protein was added, and reacted for 10 minutes, and then the amount of reduced NADPH was measured using a fluorescent reader.

[4] = Benzaldehyde reductase activity of mBFP purified from transformed cells; assay type: biochemical; conditions: benzaldehyde reaction solution
Procedure: The cultured cells were disrupted, recovered, and purified using the His-tag as follows.
The cell supernatant disrupted with phosphate buffered saline (PBS) was injected into and passed through Ni-NTA Spin Columns (Qiagen), and washed with wash buffer (PBS, 10 mM imidazole). Then, the mBFP protein was recovered with the elution buffer (PBS, 100 mM imidazole).
In order to confirm whether the mBFP protein had activity as a reductase through mutation, the reductase activity of mBFP was measured using the reaction solution for measuring the benzaldehyde reductase activity of Example 1 above.

## NC(=O)c1ccc(N)nc1 [6-ANA, 6-Aminonicotinamide]
[1]
  difference of fluorescence intensity due to mBFP after inhibitor treatment: the largest

## C[C@]12CC[C@H](O)CC1=CC[C@@H]1[C@@H]2CC[C@]2(C)C(=O)CC[C@@H]12 [DHEA, Dehydroepiandrosterone]
[1]
  difference of fluorescence intensity due to mBFP after inhibitor treatment: the largest

## CN(C)C(=O)/N=N/C(=O)N(C)C [diamide]
[2]
  fluorescence intensity after oxidant treatment: rapidly decreased

B1: Wild type: wild-type metagenome-derived blue fluorescent protein, SEQ ID NO: 6, GenBank Accession No. AF485783 (protein)
chain: MQNLNGKVAFVTGGSRGIGAAIVRRLAADGADIAFTYVSASSKNVATALVQELEAKGRRARAIQADSADPAQVRQAVEQAIVQLGPVDVLVNNAGIFLAGPLGEVTLDDYERTMNINVRAPFVAIQAAQASMPDGGRIINIGSCLAERAGRAGVTLYAASKSALLGMTRGLARDLGARGITANVVHPGPIDTDMNPADGERSGELVAVLSLPHYGEVRDIAGMVAFLAGPDGRYVTGASLAVDGGFAA
modifications: BFP wild type Y157 w/o his-tag
[3]; substrate acetaldehyde
  Enzyme activity of mutant mBFP, Acetaldehyde: 10.34 ± 0.24 U mg^−1
[3]; substrate benzaldehyde
  Enzyme activity of mutant mBFP, Benzaldehyde: 6.41 ± 0.34 U mg^−1
[3]; substrate hexanal
  Enzyme activity of mutant mBFP, Hexanal: 4.34 ± 0.14 U mg^−1
[3]; substrate pivaldehyde
  Enzyme activity of mutant mBFP, Pivaldehyde: 14.43 ± 0.68 U mg^−1
[4]
  reductase activity (in words): exhibited the reductase activity
